# B1: Histone-lysine N-methyltransferase EHMT2 (Mus musculus), Q9Z148-1 (parent)
# chain: MRGLPRGRGLMRARGRGRAAPTGGRGRGRGGAHRGRGRPRSLLSLPRAQASWAPQLPAGLTGPPVPCLPSQGEAPAEMGALLLEKEPRGAAERVHSSLGDTPQSEETLPKANPDSLEPAGPSSPASVTVTVGDEGADTPVGAASLIGDEPESLEGDGGRIVLGHATKSFPSSPSKGGACPSRAKMSMTGAGKSPPSVQSLAMRLLSMPGAQGAATAGPEPSPATTAAQEGQPKVHRARKTMSKPSNGQPPIPEKRPPEVQHFRMSDDMHLGKVTSDVAKRRKLNSGSLSEDLGSAGGSGDIILEKGEPRPLEEWETVVGDDFSLYYDAYSVDERVDSDSKSEVEALAEQLSEEEEEEEEEEEEEEEEEEEEEEEEEDEESGNQSDRSGSSGRRKAKKKWRKDSPWVKPSRKRRKREPPRAKEPRGVNGVGSSGPSEYMEVPLGSLELPSEGTLSPNHAGVSNDTSSLETERGFEELPLCSCRMEAPKIDRISERAGHKCMATESVDGELLGCNAAILKRETMRPSSRVALMVLCEAHRARMVKHHCCPGCGYFCTAGTFLECHPDFRVAHRFHKACVSQLNGMVFCPHCGEDASEAQEVTIPRGDGGTPPIGTAAPALPPLAHDAPGRADTSQPSARMRGHGEPRRPPCDPLADTIDSSGPSLTLPNGGCLSAVGLPPGPGREALEKALVIQESERRKKLRFHPRQLYLSVKQGELQKVILMLLDNLDPNFQSDQQSKRTPLHAAAQKGSVEICHVLLQAGANINAVDKQQRTPLMEAVVNNHLEVARYMVQLGGCVYSKEEDGSTCLHHAAKIGNLEMVSLLLSTGQVDVNAQDSGGWTPIIWAAEHKHIDVIRMLLTRGADVTLTDNEENICLHWASFTGSAAIAEVLLNAQCDLHAVNYHGDTPLHIAARESYHDCVLLFLSRGANPELRNKEGDTAWDLTPERSDVWFALQLNRKLRLGVGNRAVRTEKIICRDVARGYENVPIPCVNGVDGEPCPEDYKYISENCETSTMNIDRNITHLQHCTCVDDCSSSNCLCGQLSIRCWYDKDGRLLQEFNKIEPPLIFECNQACSCWRSCKNRVVQSGIKVRLQLYRTAKMGWGVRALQTIPQGTFICEYVGELISDAEADVREDDSYLFDLDNKDGEVYCIDARYYGNISRFINHLCDPNIIPVRVFMLHQDLRFPRIAFFSSRDIRTGEELGFDYGDRFWDIKSKYFTCQCGSEKCKHSAEAIALEQSRLARLDPHPELLPDLSSLPPINT
# Variants of: B1
# Conditions: with gfi1_human GFI1, Q99684
# gfi1_human GFI1, Q99684, sequence (Q99684 whole entry): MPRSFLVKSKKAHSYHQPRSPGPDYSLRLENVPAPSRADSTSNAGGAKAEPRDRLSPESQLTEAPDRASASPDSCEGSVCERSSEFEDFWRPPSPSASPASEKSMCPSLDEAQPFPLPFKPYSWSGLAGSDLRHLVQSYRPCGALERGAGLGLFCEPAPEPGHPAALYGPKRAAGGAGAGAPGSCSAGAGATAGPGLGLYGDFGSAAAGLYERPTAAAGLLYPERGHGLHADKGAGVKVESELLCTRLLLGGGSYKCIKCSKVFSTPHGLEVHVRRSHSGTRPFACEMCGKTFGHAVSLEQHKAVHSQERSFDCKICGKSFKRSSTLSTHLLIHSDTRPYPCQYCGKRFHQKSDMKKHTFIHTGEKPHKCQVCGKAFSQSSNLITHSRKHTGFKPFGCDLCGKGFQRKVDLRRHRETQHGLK
row,effect of a mutation on the interaction,Variant
1,decreasing interaction,E847A
2,decreasing interaction,W839A

# Variants of: B1
# Conditions: with ncoa2_mouse Ncoa2, Q61026
# ncoa2_mouse Ncoa2, Q61026, sequence (Q61026 whole entry): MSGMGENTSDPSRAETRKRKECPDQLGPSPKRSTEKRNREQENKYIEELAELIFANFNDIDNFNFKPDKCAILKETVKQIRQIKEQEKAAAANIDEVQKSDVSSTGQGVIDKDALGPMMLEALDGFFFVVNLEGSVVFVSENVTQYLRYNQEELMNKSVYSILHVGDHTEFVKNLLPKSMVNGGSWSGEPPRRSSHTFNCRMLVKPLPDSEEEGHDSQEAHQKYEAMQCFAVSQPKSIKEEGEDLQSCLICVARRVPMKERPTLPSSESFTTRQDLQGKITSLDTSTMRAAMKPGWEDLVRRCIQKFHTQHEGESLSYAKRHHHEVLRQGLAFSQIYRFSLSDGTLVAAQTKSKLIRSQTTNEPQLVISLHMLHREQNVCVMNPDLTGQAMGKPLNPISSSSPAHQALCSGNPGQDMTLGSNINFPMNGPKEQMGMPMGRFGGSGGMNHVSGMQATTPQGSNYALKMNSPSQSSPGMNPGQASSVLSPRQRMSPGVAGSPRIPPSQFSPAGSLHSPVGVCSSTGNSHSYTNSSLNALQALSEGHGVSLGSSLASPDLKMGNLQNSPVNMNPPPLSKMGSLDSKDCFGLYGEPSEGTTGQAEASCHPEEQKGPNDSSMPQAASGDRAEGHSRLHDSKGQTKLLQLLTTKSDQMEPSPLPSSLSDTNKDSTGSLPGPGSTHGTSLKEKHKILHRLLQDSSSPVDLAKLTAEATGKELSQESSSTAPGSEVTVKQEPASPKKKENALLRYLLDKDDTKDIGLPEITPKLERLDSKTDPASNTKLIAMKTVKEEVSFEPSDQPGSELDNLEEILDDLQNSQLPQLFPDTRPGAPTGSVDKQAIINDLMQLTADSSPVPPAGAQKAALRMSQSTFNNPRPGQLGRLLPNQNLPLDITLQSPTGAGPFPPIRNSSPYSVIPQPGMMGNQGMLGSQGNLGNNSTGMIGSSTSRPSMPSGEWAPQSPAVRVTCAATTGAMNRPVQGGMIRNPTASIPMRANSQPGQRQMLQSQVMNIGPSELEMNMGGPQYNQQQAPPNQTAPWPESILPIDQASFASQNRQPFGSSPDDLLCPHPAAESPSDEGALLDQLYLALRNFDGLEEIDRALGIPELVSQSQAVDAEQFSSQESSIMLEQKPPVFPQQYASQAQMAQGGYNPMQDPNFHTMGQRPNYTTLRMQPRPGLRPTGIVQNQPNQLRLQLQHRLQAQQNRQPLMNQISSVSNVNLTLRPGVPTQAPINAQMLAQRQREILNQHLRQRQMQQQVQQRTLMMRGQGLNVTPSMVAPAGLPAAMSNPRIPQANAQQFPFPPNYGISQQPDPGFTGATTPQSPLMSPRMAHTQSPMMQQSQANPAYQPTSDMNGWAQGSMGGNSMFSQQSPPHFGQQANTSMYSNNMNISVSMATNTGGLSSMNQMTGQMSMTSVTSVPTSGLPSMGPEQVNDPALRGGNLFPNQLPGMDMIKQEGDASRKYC
row,effect of a mutation on the interaction,Variant
1,decreasing interaction,E847A
